Source: US20210268105A1 (HEXAMER THERAPEUTICS, published 2021)
Where no end group is shown, it is not given here.

Molecular target: the molecule itself
Assay: Blue native PAGE of the peptide dissolved in 1xPBS; self-association into a hexamer
Description: The peptide (SEQ ID NO: 15) was synthesized by SPPS and lyophilized for storage. The peptide was dissolved in 1×PBS and then loaded onto a blue native PAGE gel and size fractionated by electrophoresis through a 4-16% acrylamide gradient gel for 90 min at 150 V (constant). The gel was fixed in methanol:acetic acid:water and then rinsed in the same solution to destain. Lane 1 is BSA as a reference protein, and Lane 2 is the self-assembled hexamer. MW standards (which are not shown) are on the right. BSA is 66 kDa and the hexamer has an expected size of 20.7 kDa.
Experiments were performed to confirm that a hexamer forms following hydration of the monomer, elucidate the solubility of epitope coupled hexamers, determine the maximum density of epitope coupling, and confirm that a hexameric structure is maintained following coupling of the epitope. A representative peptide, SEQ ID NO: 15, was synthesized using the protocols previously described. A methionine and aspartic acid residue were placed on the N-terminus, and the methionine residue was protected by acetylation to form Acetyl-MD-(SEQ ID NO: 15). Following SPPS, the peptide was lyophilized for storage. To show self-assembly, the peptide was dissolved in 1×PBS buffer, incubated at room temperature for 5 min, and loaded onto a Blue NativePAGE Novex Bis-Tris Gel using the system purchased from Life Technologies. […]

B1: Acetyl-MD-(SEQ ID NO: 15) (peptide)
peptide: Ac-MDLRSIGKDLRSIGRDLRSIGKDLRSIGRD
notes: After it is dissolved in 1xPBS, six copies self-assemble into a hexamer (expected 20.7 kDa); also called self-assembled peptide
**Q.** Does B1 bind?
**A.** binds
